In patent publication US7589065B2, “Catalysis of the cis/trans-isomerisation of secondary amide peptide compounds” (Max-Planck Gesellschaft zur Forderung der Wissenschaften, …, priority 2001, dated 2009):

B1: Parvulin: peptidyl-prolyl cis/trans isomerase (Rahfeld et al., 1994) (protein)
chain: AKTAAALHILVKEEKLALDLLEQIKNGADFGKLAKKHSICPSGKRGGDLGEFRQGQMVPAFDKVVFSCPVLEPTGPLHTQFGYHIIKVLYRN
B2: trigger factor (TF): peptidyl-prolyl cis/trans isomerase (Stoller G. et al., 1995) (protein)
chain: MQVSVETTQGLGRRVTITIAADSIETAVKSELVNVAKKVRIDGFRKGKVPMNIVAQRYGASVRQDVLGDLMSRNFIDAIIKEKINPAGAPTYVPGEYKLGEDFTYSVEFEVYPEVELQGLEAIEVEKPIVEVTDADVDGMLDTLRKQQATWKEKDGAVEAEDRVTIDFTGSVDGEEFEGGKASDFVLAMGQGRMIPGFEDGIKGHKAGEEFTIDVTFPEEYHAENLKGKAAKFAINLKKVEERELPELTAEFIKRFGVEDGSVEGLRAEVRKNMERELKSAIRNRVKSQAIEGLVKANDIDVPAALIDSEIDVLRRQAAQRFGGNEKQALELPRELFEEQAKRRVVVGLLLGEVIRTNELKADEERVKGLIEEMASAYEDPKEVIEFYSKNKELMDNMRNVALEEQAVEAVLAKAKVTEKETTFNELMNQQA
B3: fragment of the TF: fragment of the trigger factor (Stoller G. et al., 1996) (protein)
chain: RKQQATWKEKDGAVEAEDRVTIDFTGSVDGEEFEGGKASDFVLAMGQGRMIPGFEDGIKGHKAGEEFTIDVTFPEEYHAENLKGKAAKFAINLKKVEERELPELTAE

Test: 2D 1H NMR exchange (NOESY) measurement of cis/trans isomerisation in the pentapeptide
Format: biochemical
Details: 20 μM addition; for relative intensity of the cross signal of the peptide bond Ala-Tyr / relative intensity of the cross signal of the peptide bond Tyr-Ala: 25 mM pentapeptide, pH 7.1, 278° K; for relative intensity of the cross signal of the peptide bond Ala-Tyr: no addition 3.50 ± 0.51; for relative intensity of the cross signal of the peptide bond Tyr-Ala: no addition 3.89 ± 0.32
Excerpt: A further possibility, only described in 1998, is the determination of the cis/trans isomerisation rate of secondary amide peptide bonds containing aromatic amino acids by means of 2D 1H NMR exchange experiments (Scherer G. et al., 1998, JACS 120:5568-5574). In Example 8, this NMR method is used to determine a catalytic acceleration of the cis/trans isomerisation of the peptide bonds Ala-Tyr and Tyr-Ala within the pentapeptide Ala-Ala-Tyr-Ala-Ala. The acceleration is accomplished by catalytic amounts of DnaK.
NMR Device: Bruker DRX-500, Equipped with z-gradient
• FIG. 8: The alanine methyl region from the two-dimensional exchange 1H-NMR spectrum of 25 mM Ala-Ala-Tyr-Ala-Ala in 25 mM Tris, 11 mM MgCl2, 50 mM KCl, 9:1H2O:D2O, pH 7.1 at 278° K. The mixing time of the phase-sensitive NOESY was 330 ms. Each FID had 184 scans. The amount of data from t1×t2=512×8192 points covered a spectral range of 5501 Hz×5482 Hz. The correction of the base line was carried out by adjustment with a polynom of fifth order in the F2 dimension. […] The experiment was carried out under identical conditions as described above. In addition, 20 μM DnaK was contained in the measuring solution.
In a further analysis of the method of the two-dimensional NOESY experiment illustrated in Example 8, the cross signals can be quantified by means of common mathematical techniques.

Molecule	catalysis of the cis/trans isomerisation of the Ala-Tyr and Tyr-Ala peptide bonds (in words)	relative intensity of the cross signal of the peptide bond Ala-Tyr	relative intensity of the cross signal of the peptide bond Tyr-Ala
B1	neither catalyse	2.90 ± 0.96	3.11 ± 0.46
B2	neither catalyse	3.83 ± 1.07	4.42 ± 0.58
B3	neither catalyse	3.96 ± 0.77	3.22 ± 0.58
